Experimental data from US20090018093.
Read-outs that look alike come from different tables or passages of the source.

Tests used:
[1] = tested on: Immunoglobulin E (IgE) (Homo sapiens), P01854-1; test: filter
[2] = tested on: Immunoglobulin E (IgE) (Homo sapiens), P01854-1; test: inhibition; details: FACS

Chain of Immunoglobulin E (IgE) (Homo sapiens), P01854-1 (P01854 other isoform, or with tags, fused parts or gaps): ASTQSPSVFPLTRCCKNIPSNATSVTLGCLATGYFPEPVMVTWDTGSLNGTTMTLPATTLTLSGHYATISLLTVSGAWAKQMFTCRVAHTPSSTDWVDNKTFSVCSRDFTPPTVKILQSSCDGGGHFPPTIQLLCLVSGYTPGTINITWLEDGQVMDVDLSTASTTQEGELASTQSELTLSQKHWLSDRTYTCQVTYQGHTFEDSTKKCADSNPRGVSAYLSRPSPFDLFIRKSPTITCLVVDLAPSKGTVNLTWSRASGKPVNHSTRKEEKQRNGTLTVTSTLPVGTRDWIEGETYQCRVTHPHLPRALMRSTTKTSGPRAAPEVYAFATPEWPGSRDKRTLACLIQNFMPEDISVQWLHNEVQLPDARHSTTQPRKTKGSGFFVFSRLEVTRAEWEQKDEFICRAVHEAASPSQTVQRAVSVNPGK

Sequence: AGCCUGGGGACCCAUGGGGGGCU [ARC1335]
- Kd ([1]; 2'-OMe C,U,A1,G2,G7,A10,A14,G17, deoxy G6,G8,G9,G16,G18-G21, 3' idT [2'-OMe: 1-5,7,10-15,17,22,23, deoxy: 6,8,9,16,18-21, 24 = 3' inverted dT], dPBS Ca/Mg + BSA, RT): 0.3 nM
- IC50 ([2]; 2'-OMe A1,G2,G7,A10,A14,G17 and all C,U, rest 2'-deoxy, 3' idT [2'-OMe at 1,2,3,4,5,7,10,11,12,13,14,15,17,22,23, 2'-deoxy at 6,8,9,16,18,19,20,21, 3' idT left out], 2.5 nM IgE): 7.3 nM

Sequence: AGCCUGGGGACCCAUGGGGGGCU [ARC1337]
- Kd ([1]; as printed dA-s-mGmCmCmUdGmGdGdG-s-mAmCmCmCmAmU-s-dG-s-mGdGdGdG-s-dGmCmU-3T [deoxy: 1,6,8,9,16,18-21, 2'-OMe: 2-5,7,10-15,17,22,23, phosphorothioate after 1,9,15,16,20 (also after 18 per given string), 24 = 3' inverted dT], dPBS Ca/Mg + BSA, RT): 0.2 nM
- IC50 ([2]; 2'-OMe/2'-deoxy mix, PS, 3' idT [PS after 1,9,15,16,18,20, 2'-OMe/2'-deoxy mix, 3' idT left out], 2.5 nM IgE): 4.7 nM

Sequence: AGCCUGGGGACCCAUGGGGGGCU [ARC1382]
- Kd ([1]; 2'-OMe/2'-deoxy mix, PS linkages as in Table 17, 3' idT [phosphorothioate linkages (internal N, left out) between 8-9, 18-19, 20-21, 2'-OMe/2'-deoxy mix (positions not given), 3' inverted dT at 24], DPBS Mg/Ca, 0.1 mg/mL BSA, RT): 1.1 nM
- IC50 ([2]; 2'-OMe/2'-deoxy mix, PS linkages as in Table 17, 3' idT [phosphorothioate linkages (internal N, left out) between 8-9, 18-19, 20-21, 2'-OMe/2'-deoxy mix (positions not given), 3' inverted dT at 24], 2.5 nM IgE): 6.9 nM

Sequence: AGCCUGGGGACCCAUGGGGGGCU [ARC1383]
- Kd ([1]; 2'-OMe/2'-deoxy mix, PS linkages as in Table 17, 3' idT [phosphorothioate linkages (internal N, left out) between 8-9, 15-16, 18-19, 20-21, 2'-OMe/2'-deoxy mix (positions not given), 3' inverted dT at 24], DPBS Mg/Ca, 0.1 mg/mL BSA, RT): 1 nM
- IC50 ([2]; 2'-OMe/2'-deoxy mix, PS linkages as in Table 17, 3' idT [phosphorothioate linkages (internal N, left out) between 8-9, 15-16, 18-19, 20-21, 2'-OMe/2'-deoxy mix (positions not given), 3' inverted dT at 24], 2.5 nM IgE): 7.5 nM

Sequence: AGCCUGGGGACCCAUGGGGGGCU [ARC1384]
- Kd ([1]; as printed mAmGmCmCmUdGmG-s-dGmAmCmCmCmAmU-s-dG-s-mGdG-s-dGdG-s-dGmCmU-3T [2'-OMe: 1-5,7,10-15,17,22,23, deoxy: 6,8,9,16,18-21, phosphorothioate after 8,15,16,18,20, 24 = 3' inverted dT], dPBS Ca/Mg + BSA, RT): 0.5 nM
- IC50 ([2]; 2'-OMe/2'-deoxy mix, PS, 3' idT [PS after 8,15,16,18,20, 2'-OMe/2'-deoxy mix, 3' idT left out], 2.5 nM IgE): 4.4 nM

Sequence: AGCCUGGGGACCCAUGGGGGGCU [ARC1572]
- Kd ([1]; 2'-OMe/2'-deoxy mix, PS linkages as in Table 17, 3' idT [phosphorothioate linkages (internal N, left out) between 5-6, 7-8, 8-9, 15-16, 17-18, 18-19, 19-20, 20-21, 2'-OMe/2'-deoxy mix (positions not given), 3' inverted dT at 24], DPBS Mg/Ca, 0.1 mg/mL BSA, RT): 0.3 nM
- IC50 ([2]; 2'-OMe/2'-deoxy mix, PS linkages as in Table 17, 3' idT [phosphorothioate linkages (internal N, left out) between 5-6, 7-8, 8-9, 15-16, 17-18, 18-19, 19-20, 20-21, 2'-OMe/2'-deoxy mix (positions not given), 3' inverted dT at 24], 2.5 nM IgE): 22.8 nM

Sequence: AGCCUGGGGACCCAUGGGGGGCU [ARC1573]
- Kd ([1]; as printed mAmGmCmCmU-s-dG-s-mG-s-dG-s-dGmAmCmCmCmAmU-s-dG-s-mG-s-dG-s-dG-s-dG-s-dG-s-mCmU-3T [2'-OMe: 1-5,7,10-15,17,22,23, deoxy: 6,8,9,16,18-21, phosphorothioate after 5-8,15-21, 24 = 3' inverted dT], dPBS Ca/Mg + BSA, RT): 0.4 nM
- IC50 ([2]; 2'-OMe/2'-deoxy mix, PS, 3' idT [PS after 5,6,7,8,15,16,17,18,19,20,21, 2'-OMe/2'-deoxy mix, 3' idT left out], 2.5 nM IgE): 69.4 nM

Sequence: AGCCUGGGGACCCAUGGGGGGCU [ARC1641]
- Kd ([1]; mAmGmCmCmUdGmGdG-s-dGmAmCmCmCmAmU-s-dG-s-mGdG-s-dGdI-s-dGmCmU-3T [2'-OMe 1-5,7,10-15,17,22,23, dI20 (inosine, parent base G), phosphorothioate 8/9,15/16,16/17,18/19,20/21 (N linkage letters left out), 3' inverted dT24], dPBS Ca/Mg + BSA, RT): 0.4 nM
- IC50 ([2]; 2'-OMe/2'-deoxy mix, dI20, PS, 3' idT [dI at 20 (written as parent G), PS after 8,15,16,18,20, 2'-OMe/2'-deoxy mix, 3' idT left out], 2.5 nM IgE): 1.8 nM

Sequence: AGCCUGGGGACCCAUGGGGGGCU [ARC1642]
- Kd ([1]; 2'-OMe/2'-deoxy mix, dI16,dI20, PS, 3' idT [16=dI, 20=dI (G parent), 24=3' inverted dT, phosphorothioate linkage N's left out], DPBS Mg/Ca, 0.1 mg/mL BSA, RT): 0.4 nM
- IC50 ([2]; 2'-OMe/2'-deoxy mix, dI16,dI20, PS, 3' idT [16=dI, 20=dI (G parent), 24=3' inverted dT, phosphorothioate linkage N's left out], 2.5 nM IgE): 1.8 nM

Sequence: AGCCUGGGGACCCAUGGGGGGCU [ARC1785]
- IC50 ([2]; ARC1666 chemistry, 5' and 3' 20 kDa PEG [dI at 16,18,20 (written as parent G), PS after 8,15,16,18,20, 2'-OMe/2'-deoxy mix (ARC1666 chemistry), 5' and 3' amine linker-20 kDa PEG left out], IgE-FceR1 on SX38 cells): 2 nM

Sequence: AGCCUGGGGACCCAUGGGGGGCU [ARC1790]
- IC50 ([2]; ARC1666 chemistry, 5' and 3' 30 kDa PEG [dI at 16,18,20 (written as parent G), PS after 8,15,16,18,20, 2'-OMe/2'-deoxy mix (ARC1666 chemistry), 5' and 3' amine linker-30 kDa PEG left out], IgE-FceR1 on SX38 cells): 0.89 nM

Sequence: GGGGCTACTTTATCCGTTCCTCCTAGTGGGTAGCCCC [ARC656]
- IC50 ([2]; 3' idT [3' idT left out], 2.5 nM IgE, histamine release IC50 16.9 nM): 21.2 nM

Sequence: GGGGCTACTTTATCCGTTCCTCCTAGTGGGTAGCCCCT [ARC1302]
- Kd ([1]; DNA with 2'-OMe G1-G4,A7,G30,A32,G33, 3' idT [2'-OMe G1-G4, A7, G30, A32, G33, 3' inverted dT at 38], dPBS Ca/Mg + BSA): 19 nM

Sequence: GGGGCTACTTTATCCGTTCCTCCTAGTGGGTAGCCCCT [ARC1304]
- Kd ([1]; 2'-OMe at 1-4,34-37, 3' idT [2'-OMe: 1-4,34-37, 38 = 3' inverted dT], DPBS Mg/Ca, BSA): 0.6 nM

Sequence: GGGGCTACTTTATCCGTTCCTCCTAGTGGGTAGCCCCT [ARC1387]
- Kd ([1]; 2'-OMe at 1-4,7,33-37, 3' idT [2'-OMe: 1-4,7,33-37, 38 = 3' inverted dT], DPBS Mg/Ca, BSA): 2.4 nM

Sequence: GGGGCTACTTTATCCGTTCCTCCTAGTGGGTAGCCCCT [ARC1410]
- Kd ([1]; DNA with 2'-OMe G1-G4,A7,G33-C37, PS between T27 and G28, 3' idT [2'-OMe G1-G4, A7, G33-C37, PS 27/28 (printed N = PS linkage, left out), 3' inverted dT at 38], dPBS Ca/Mg + BSA): 0.7 nM

Sequence: GGGGCTACTTTATCCGTTCCTCCTAGTGGGUAGCCCCN [ARC1295]
- Kd ([1]; 2'-OMe U at 31, 3' idT, DPBS Mg/Ca, BSA): 3 nM

Sequence: GGGGCTACTTTATCCGTTCCTCCUAGTGGGTAGCCCCN [ARC1288]
- Kd ([1]; 2'-OMe U at 24, 3' idT, DPBS Mg/Ca, BSA): 2 nM

Sequence: GGGGCTACTTTATCCGTTCCUCCTAGTGGGTAGCCCCN [ARC1285]
- Kd ([1]; 2'-OMe U at 21, 3' idT, DPBS Mg/Ca, BSA): 0.8 nM

Sequence: GGGGCTACTTTATCCGTUCCTCCTAGTGGGTAGCCCCN [ARC1282]
- Kd ([1]; 2'-OMe U at 18, 3' idT, DPBS Mg/Ca, BSA): 0.2 nM

Sequence: GGGGCTACTTTATCCGUTCCTCCTAGTGGGTAGCCCCN [ARC1281]
- Kd ([1]; 2'-OMe U at 17, 3' idT, DPBS Mg/Ca, BSA): 0.1 nM

Sequence: GGGGCTACTTTAUCCGTTCCTCCTAGTGGGTAGCCCC [ARC1277]
- Kd ([1]; DNA with 2'-OMe U13, 3' idT [2'-OMe U13, 3' inverted dT38], dPBS Ca/Mg + BSA): 6 nM

Sequence: GGGGCTACTTUATCCGTTCCTCCTAGTGGGTAGCCCC [ARC1275]
- Kd ([1]; 2'-OMe U at 11, 3' idT [11 (2'-OMe U), 38 (3' inverted dT)], DPBS Mg/Ca, BSA): 0.3 nM

Sequence: GGGGCTACTTUATCCGUUCCTCCTAGTGGGTAGCCCC [ARC1389]
- Kd ([1]; 2'-OMe at 1-4,7,11,17,18,20,33-37, 3' idT [2'-OMe: 1-4,7,11,17,18,20,33-37, 38 = 3' inverted dT], DPBS Mg/Ca, BSA): 5.4 nM

Sequence: GGGGCTACTUTATCCGTTCCTCCTAGTGGGTAGCCCC [ARC1274]
- Kd ([1]; 2'-OMe U at 10, 3' idT [10 (2'-OMe U), 38 (3' inverted dT)], DPBS Mg/Ca, BSA): 2 nM

Sequence: GGGGCTACUTTATCCGTTCCTCCTAGTGGGTAGCCCC [ARC1273]
- Kd ([1]; DNA with 2'-OMe U9, 3' idT [2'-OMe U9, 3' inverted dT38], dPBS Ca/Mg + BSA): 3 nM

Sequence: GGGGCUACTTTATCCGTTCCTCCTAGTGGGTAGCCCC [ARC1270]
- Kd ([1]; 2'-OMe U at 6, 3' idT [6 (2'-OMe U), 38 (3' inverted dT)], DPBS Mg/Ca, BSA): 0.2 nM

Sequence: GGGGCUACTTTATCCGTTCCTCCTAGTGGGTAGCCCC [ARC1388]
- Kd ([1]; 2'-OMe at 1-8,33-37, 3' idT [2'-OMe: 1-8,33-37, 38 = 3' inverted dT], DPBS Mg/Ca, BSA): 4.4 nM

Sequence: GGGGCUACTTTATCCGTTCCTCCTAGTGGGUAGCCCC [ARC1303]
- Kd ([1]; 2'-OMe stem block as printed in Table 18, 3' idT [2'-OMe: stem block (exact positions not given in the material), 38 = 3' inverted dT], DPBS Mg/Ca, BSA): 1.3 nM

Sequence: GGGGCUACTTUATCCGUUCCTCCTAGTGGGTAGCCCC [ARC1390]
- Kd ([1]; 2'-OMe at 1-8,11,17,18,20,33-37, 3' idT [2'-OMe: 1-8,11,17,18,20,33-37, 38 = 3' inverted dT], DPBS Mg/Ca, BSA): 17 nM

Sequence: GGGGCUACTTUATCCGUUCCTCCTAGTGGGTAGCCCC [ARC1417]
- Kd ([1]; DNA with 2'-OMe 1-8,U11,U17,U18,C20,33-37, multiple PS, 3' idT [2'-OMe 1-8, U11, U17, U18, C20, 33-37, PS 9/10, 12/13, 14/15, 21/22, 24/25, 27/28, 30/31 (printed N = PS linkage, left out), 3' inverted dT at 38], dPBS Ca/Mg + BSA): 27 nM

Sequence: GGGGTACCTTTATCCGTTTCTCCTAGTGGGGTGCCCC [DNA clone SEQ 132]
- Kd [1]: 0.4 nM

Sequence: GGGGTATGTTGATCCGTCCCTCCTAGTGGCATGCCCC [DNA clone SEQ 133]
- Kd [1]: 0.7 nM

Sequence: NNAGCCUGGGNGACCCAUNNNGNNGNNGCUN [ARC1787]
- IC50 ([2]; ARC1666 chemistry, 5' 40 kDa branched PEG, 3' idT, IgE-FceR1 on SX38 cells): 1.2 nM

Sequence: NNAGCCUGGGNGACCCAUNNNGNNGNNGCUN [ARC1788]
- IC50 ([2]; ARC1666 chemistry, 5' 60 kDa branched PEG, 3' idT, IgE-FceR1 on SX38 cells): 1.2 nM
